Key:
HSA domain 2 (DII) = target: T1, HSA domain 2 (DII) (human, UniProt P02768 213-409); assay: SPR, 100 nM VHH over an amine-coupled DII surface
T1 construct: domain: DII

human serum albumin [1] = target: T2, human serum albumin (human, UniProt P02768 25-609); assay: SPR, single cycle kinetics, pH 5.5
T2 construct: also called HSA

human serum albumin [2] = target: T2, human serum albumin; assay: SPR, single cycle kinetics, pH 7.4
human serum albumin [3] = target: T2, human serum albumin; assay: SPR, single cycle kinetics, pH 7.4; remark: listed apart in the source
mouse serum albumin [4] = target: T3, mouse serum albumin (mouse, UniProt P07724 25-608); assay: SPR, single cycle kinetics, pH 7.4
T3 construct: also called MSA

rhesus serum albumin [5] = target: T4, rhesus serum albumin (rhesus, UniProt Q28522 17-600); assay: SPR, single cycle kinetics, pH 7.4
T4 construct: also called RhSA

rat serum albumin [6] = target: T5, rat serum albumin (rat, UniProt P02770 25-608); assay: SPR, single cycle kinetics, pH 7.4
T5 construct: also called RSA

human serum albumin [7] = target: T2, human serum albumin; assay: SPR, single cycle kinetics, pH 5.5; remark: listed apart in the source
human serum albumin [8] = target: T2, human serum albumin; assay: SPR, pH 7.4; complex binding, data not analyzable
rhesus serum albumin [9] = target: T4, rhesus serum albumin; assay: SPR, pH 7.4; complex binding, data not analyzable
rat serum albumin [10] = target: T5, rat serum albumin; assay: SPR, pH 7.4; complex binding, data not analyzable
mouse serum albumin [11] = target: T3, mouse serum albumin; assay: ITC, pH 7.4
rhesus serum albumin [12] = target: T4, rhesus serum albumin; assay: SPR, single cycle kinetics, pH 5.5
rat serum albumin [13] = target: T5, rat serum albumin; assay: SPR, single cycle kinetics, pH 5.5
rhesus serum albumin [14] = target: T4, rhesus serum albumin; assay: SPR, single cycle kinetics, pH 7.4; remark: listed apart in the source
rat serum albumin [15] = target: T5, rat serum albumin; assay: SPR, single cycle kinetics, pH 7.4; remark: listed apart in the source
rhesus serum albumin [16] = target: T4, rhesus serum albumin; assay: SPR, single cycle kinetics, pH 5.5; remark: listed apart in the source
rat serum albumin [17] = target: T5, rat serum albumin; assay: SPR, single cycle kinetics, pH 5.5; remark: listed apart in the source

T3 sequence (P07724 25-608 limits assumed): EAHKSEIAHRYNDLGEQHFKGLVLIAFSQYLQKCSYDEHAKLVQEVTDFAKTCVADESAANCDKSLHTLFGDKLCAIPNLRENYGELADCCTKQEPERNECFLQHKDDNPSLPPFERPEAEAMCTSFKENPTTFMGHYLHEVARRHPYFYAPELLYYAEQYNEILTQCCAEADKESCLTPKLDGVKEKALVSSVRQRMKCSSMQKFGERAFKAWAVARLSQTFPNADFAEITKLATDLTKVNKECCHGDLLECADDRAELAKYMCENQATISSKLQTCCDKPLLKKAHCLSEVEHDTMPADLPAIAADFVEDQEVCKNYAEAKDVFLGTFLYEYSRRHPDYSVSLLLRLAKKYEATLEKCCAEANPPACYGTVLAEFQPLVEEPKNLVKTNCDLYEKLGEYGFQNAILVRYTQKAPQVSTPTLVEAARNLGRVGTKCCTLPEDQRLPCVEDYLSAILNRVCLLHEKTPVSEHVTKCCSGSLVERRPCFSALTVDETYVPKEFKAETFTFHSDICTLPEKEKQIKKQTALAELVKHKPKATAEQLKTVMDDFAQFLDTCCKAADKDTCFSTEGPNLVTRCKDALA

B1: M75 sdAb (VHH)
VHH: QVQLVESGGGFVQAGGSLRLSCAASGRTFDNYVMAWFRQAPGKEREFVASISGSGSITNYANSVKDRFTISRDSAKNAIYLQMNSLKPEDTALYYCAAGSRRTYYREPKFYPSWGQGTQVTVSS
notes: also called M75 VHH
Which results are given for B1?
binding result (HSA domain 2 (DII)): no binding (tested: 100 nM); Kd (human serum albumin [1]): 735 nM; Kd (human serum albumin [2]): 1.2 nM; Kd (human serum albumin [3]): 1.2 nM; Kd (mouse serum albumin [4]): 510 nM; Kd (rhesus serum albumin [5]): 2.9 nM; Kd (rat serum albumin [6]): 315 nM; Kd (human serum albumin [7]): 735 nM

B2: R11-H4 (VHH)
VHH: QVQLVESGGGLVQPGGSLRLSCAASGFLLRSNTMGWYRQAPGKERELVAFIRPSGLTNYNDAVQGRFTISRDNSKNTLYLQMNSLRAEDTAVYYCHTRPPFQRDSWGQGTLVTVSS
Does B2 bind (human serum albumin [8])?
Result: binds

Does B2 bind (rhesus serum albumin [9])?
Result: binds

Does B2 bind (rat serum albumin [10])?
Result: binds

B3: R11-H3 (VHH)
VHH: EVQLVESGGGLVQPGGSLRLSCAASGFLLRSNTMGWYRQAPGKERELVSFIRPSGLTNYNDAVQGRFTISRDNSKNTLYLQMNSLRAEDTAVYYCHTRPPFQRDSWGQGTLVTVSS
What does the source list for B3?
binding result (human serum albumin [8]): binds; binding result (rat serum albumin [10]): binds

B4: M79 sdAb (VHH)
VHH: QVKLEESGGGLVQAGGSLKLSCAASGSTFSSSSVGWYRQAPGQQRELVAAITSGGSTNTADSVKGRFTMSRDNAKNTVYLQMRDLKPEDTAVYYCNVAGRNWVPISRYSPGPYWGQGTQVTVSS
notes: also called M79 VHH
With B4 as the binder, how does the Kd (mouse serum albumin [11]) read?
The Kd was 406 nM.

And the Kd (human serum albumin [1])?
The Kd was 7.1 nM.

What about the Kd (rhesus serum albumin [12]) of the same binder?
The Kd was 2 nM.

What about the Kd (rat serum albumin [13]) of the same binder?
The Kd was 7.1 nM.

And the Kd (human serum albumin [2])?
Its Kd is 122 nM.

And the Kd (rhesus serum albumin [14])?
Its Kd is 84.6 nM.

What about the Kd (rat serum albumin [15]) of the same binder?
The Kd was 12.6 nM.

And the Kd (human serum albumin [3])?
The Kd was 122 nM.

What about the Kd (rhesus serum albumin [5]) of the same binder?
The Kd was 85 nM.

What about the Kd (rat serum albumin [6]) of the same binder?
Its Kd is 13 nM.

And the Kd (human serum albumin [7])?
Its Kd is 7 nM.

What about the Kd (rhesus serum albumin [16]) of the same binder?
Its Kd is 2 nM.

What about the Kd (rat serum albumin [17]) of the same binder?
Its Kd is 7 nM.

— patent US20210253679A1 (NATIONAL RESEARCH COUNCIL OF CANADA, published 2021)
